Some targets named below: MGMT G156C (Homo sapiens, UniProt P16455 1-207, G156C); MGMT WT (Homo sapiens, UniProt P16455 1-207); MGMT G132R (Homo sapiens, UniProt P16455 1-207, G132R).
Test in all cases: pre-steady-state rapid-quench kinetics

Chain of MGMT G132R (P16455 whole entry G132R): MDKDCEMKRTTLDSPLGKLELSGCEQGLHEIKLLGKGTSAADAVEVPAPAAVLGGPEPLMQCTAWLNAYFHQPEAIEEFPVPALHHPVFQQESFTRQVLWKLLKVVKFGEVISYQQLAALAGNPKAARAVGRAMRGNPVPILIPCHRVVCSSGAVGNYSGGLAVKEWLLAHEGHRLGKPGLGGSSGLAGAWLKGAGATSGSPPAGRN
Chain of MGMT WT (P16455 whole entry): as the sequence (P16455 whole entry G132R) above, with R132G counted along it
Chain of MGMT G156C (P16455 whole entry G156C): as the sequence (P16455 whole entry G132R) above, with R132G, G156C counted along it

B1: PvuIITopD/PvuIIBottom (O6MeG 18 bp duplex) (dsDNA)
DNA 1: GCCCGGCCAGCTGCAGTT
DNA 2: AACTGCAGCTGGCCGGGC
modifications: O6-methylguanine at position 13 of strand 1 (printed as X), paired with C
As a reminder, the Kd is a measure of binding affinity in units of concentration. Low readings indicate higher affinity, high ones lower affinity. As for B1, the dissociation constant Kd was determined as 240 ± 60 nM with MGMT G156C, 6.2 ± 0.7 nM with MGMT WT and 14 ± 3 nM with MGMT G132R.

The values above are taken from PMC3720794.
